For one molecule, Kd results are on record in PMC9201380, “Structural Characterization of a Neutralizing Nanobody With Broad Activity Against SARS-CoV-2 Variants” (Frontiers in Microbiology, 2022).

The assay concerns the target SARS-CoV-2 S receptor-binding domain (residues 330-531), Avi-tagged and biotinylated (SARS-CoV-2, UniProt P0DTC2). The assay is described as follows: BLI; Octet RED96; biotinylated RBD (2 μg mL^-1) immobilized on SA sensor; DL28 as analyte at 2, 5, 10 and 20 nM; 30°C; 1x PBS, 0.05% Tween 20; association 360 s, dissociation 600 s; 1:1 fit. The conditions noted are these: both partners purified.

B1: DL28 (monovalent nanobody) (VHH)
VHH: QVQLQESGGGLVQAGGSLRLSCAASGSDFSSSTMGWYRQAPGKQREFVAISSEGSTSYAGSVKGRFTISRDNAKNTVYLQMNSLEPEDTAVYYCNVVDRWYDYWGQGTQVTVSA
notes: also called monovalent DL28
Turning to B1, the Kd was 1.56 nM. In other words, the single-digit nanomolar range.
